In US20260139055A1:

biological target: canine FcRn complex (FcRn-alpha subunit and beta-microglobulin), His-tagged, biotin labeled (canine); test: SPR (Biacore), biotin-FcRn captured on SA surface, IgG flowed over, pH 6, 15 C

Kd	Binder
9.11 nM	canine IgGB (65) mAb with mutation A426V (antibody, part only; not given: Variable domains, not shown: another chain or arm of the molecule) constant: ASTTAPSVFPLAPSCGSTSGSTVALACLVSGYFPEPVTVSWNSGSLTSGVHTFPSVLQSSGLYSLSSMVTVPSSRWPSETFTCNVAHPASKTKVDKPVPKRENGRVPRPPDCPKCPAPEMLGGPSVFIFPPKPKDTLLIARTPEVTCVVVDLDPEDPEVQISWFVDGKQMQTAKTQPREEQFNGTYRVVSVLPIGHQDWLKGKQFTCKVNNKALPSPIERTISKARGQAHQPSVYVLPPSREELSKNTVSLTCLIKDFFPPDIDVEWQSNGQQEPESKYRTTPPQLDEDGSYFLYSKLSVDKSRWQRGDTFICVVMHEALHNHYTQESLSHSPGK
4.26 nM	canine IgGB (65) mAb with mutation Y436L (antibody, part only; not given: variable domains of unnamed mAb, not shown: another chain or arm of the molecule) constant: ASTTAPSVFPLAPSCGSTSGSTVALACLVSGYFPEPVTVSWNSGSLTSGVHTFPSVLQSSGLYSLSSMVTVPSSRWPSETFTCNVAHPASKTKVDKPVPKRENGRVPRPPDCPKCPAPEMLGGPSVFIFPPKPKDTLLIARTPEVTCVVVDLDPEDPEVQISWFVDGKQMQTAKTQPREEQFNGTYRVVSVLPIGHQDWLKGKQFTCKVNNKALPSPIERTISKARGQAHQPSVYVLPPSREELSKNTVSLTCLIKDFFPPDIDVEWQSNGQQEPESKYRTTPPQLDEDGSYFLYSKLSVDKSRWQRGDTFICAVMHEALHNHLTQESLSHSPGK
9.67 nM	canine IgGB (65) mAb with mutation Y436G (antibody, part only; not given: Variable domains, not shown: another chain or arm of the molecule) constant: ASTTAPSVFPLAPSCGSTSGSTVALACLVSGYFPEPVTVSWNSGSLTSGVHTFPSVLQSSGLYSLSSMVTVPSSRWPSETFTCNVAHPASKTKVDKPVPKRENGRVPRPPDCPKCPAPEMLGGPSVFIFPPKPKDTLLIARTPEVTCVVVDLDPEDPEVQISWFVDGKQMQTAKTQPREEQFNGTYRVVSVLPIGHQDWLKGKQFTCKVNNKALPSPIERTISKARGQAHQPSVYVLPPSREELSKNTVSLTCLIKDFFPPDIDVEWQSNGQQEPESKYRTTPPQLDEDGSYFLYSKLSVDKSRWQRGDTFICAVMHEALHNHGTQESLSHSPGK
3.83 nM	canine IgGB (65) mAb with mutation Y436R (antibody, part only; not given: Variable domains, not shown: another chain or arm of the molecule) constant: ASTTAPSVFPLAPSCGSTSGSTVALACLVSGYFPEPVTVSWNSGSLTSGVHTFPSVLQSSGLYSLSSMVTVPSSRWPSETFTCNVAHPASKTKVDKPVPKRENGRVPRPPDCPKCPAPEMLGGPSVFIFPPKPKDTLLIARTPEVTCVVVDLDPEDPEVQISWFVDGKQMQTAKTQPREEQFNGTYRVVSVLPIGHQDWLKGKQFTCKVNNKALPSPIERTISKARGQAHQPSVYVLPPSREELSKNTVSLTCLIKDFFPPDIDVEWQSNGQQEPESKYRTTPPQLDEDGSYFLYSKLSVDKSRWQRGDTFICAVMHEALHNHRTQESLSHSPGK
8.84 nM	canine IgGB (65) mAb with mutation Y436C (antibody, part only; not given: Variable domains, not shown: another chain or arm of the molecule) constant: ASTTAPSVFPLAPSCGSTSGSTVALACLVSGYFPEPVTVSWNSGSLTSGVHTFPSVLQSSGLYSLSSMVTVPSSRWPSETFTCNVAHPASKTKVDKPVPKRENGRVPRPPDCPKCPAPEMLGGPSVFIFPPKPKDTLLIARTPEVTCVVVDLDPEDPEVQISWFVDGKQMQTAKTQPREEQFNGTYRVVSVLPIGHQDWLKGKQFTCKVNNKALPSPIERTISKARGQAHQPSVYVLPPSREELSKNTVSLTCLIKDFFPPDIDVEWQSNGQQEPESKYRTTPPQLDEDGSYFLYSKLSVDKSRWQRGDTFICAVMHEALHNHCTQESLSHSPGK
5.28 nM	canine IgGB (65) mAb with mutation Y436E (antibody, part only; not given: Variable domains, not shown: another chain or arm of the molecule) constant: ASTTAPSVFPLAPSCGSTSGSTVALACLVSGYFPEPVTVSWNSGSLTSGVHTFPSVLQSSGLYSLSSMVTVPSSRWPSETFTCNVAHPASKTKVDKPVPKRENGRVPRPPDCPKCPAPEMLGGPSVFIFPPKPKDTLLIARTPEVTCVVVDLDPEDPEVQISWFVDGKQMQTAKTQPREEQFNGTYRVVSVLPIGHQDWLKGKQFTCKVNNKALPSPIERTISKARGQAHQPSVYVLPPSREELSKNTVSLTCLIKDFFPPDIDVEWQSNGQQEPESKYRTTPPQLDEDGSYFLYSKLSVDKSRWQRGDTFICAVMHEALHNHETQESLSHSPGK
8.41 nM	canine IgGB (65) mAb with mutation Y436I (antibody, part only; not given: variable domains of unnamed mAb, not shown: another chain or arm of the molecule) constant: ASTTAPSVFPLAPSCGSTSGSTVALACLVSGYFPEPVTVSWNSGSLTSGVHTFPSVLQSSGLYSLSSMVTVPSSRWPSETFTCNVAHPASKTKVDKPVPKRENGRVPRPPDCPKCPAPEMLGGPSVFIFPPKPKDTLLIARTPEVTCVVVDLDPEDPEVQISWFVDGKQMQTAKTQPREEQFNGTYRVVSVLPIGHQDWLKGKQFTCKVNNKALPSPIERTISKARGQAHQPSVYVLPPSREELSKNTVSLTCLIKDFFPPDIDVEWQSNGQQEPESKYRTTPPQLDEDGSYFLYSKLSVDKSRWQRGDTFICAVMHEALHNHITQESLSHSPGK
668 nM	canine IgGB (65) mAb with mutation Y436P (antibody, part only; not given: variable domains of unnamed mAb, not shown: another chain or arm of the molecule) constant: ASTTAPSVFPLAPSCGSTSGSTVALACLVSGYFPEPVTVSWNSGSLTSGVHTFPSVLQSSGLYSLSSMVTVPSSRWPSETFTCNVAHPASKTKVDKPVPKRENGRVPRPPDCPKCPAPEMLGGPSVFIFPPKPKDTLLIARTPEVTCVVVDLDPEDPEVQISWFVDGKQMQTAKTQPREEQFNGTYRVVSVLPIGHQDWLKGKQFTCKVNNKALPSPIERTISKARGQAHQPSVYVLPPSREELSKNTVSLTCLIKDFFPPDIDVEWQSNGQQEPESKYRTTPPQLDEDGSYFLYSKLSVDKSRWQRGDTFICAVMHEALHNHPTQESLSHSPGK
3.87 nM	canine IgGB (65) mAb with mutation A426W (antibody, part only; not given: variable domains of unnamed mAb, not shown: another chain or arm of the molecule) constant: ASTTAPSVFPLAPSCGSTSGSTVALACLVSGYFPEPVTVSWNSGSLTSGVHTFPSVLQSSGLYSLSSMVTVPSSRWPSETFTCNVAHPASKTKVDKPVPKRENGRVPRPPDCPKCPAPEMLGGPSVFIFPPKPKDTLLIARTPEVTCVVVDLDPEDPEVQISWFVDGKQMQTAKTQPREEQFNGTYRVVSVLPIGHQDWLKGKQFTCKVNNKALPSPIERTISKARGQAHQPSVYVLPPSREELSKNTVSLTCLIKDFFPPDIDVEWQSNGQQEPESKYRTTPPQLDEDGSYFLYSKLSVDKSRWQRGDTFICWVMHEALHNHYTQESLSHSPGK
4.74 nM	canine IgGB (65) mAb with mutation Y436Q (antibody, part only; not given: Variable domains, not shown: another chain or arm of the molecule) constant: ASTTAPSVFPLAPSCGSTSGSTVALACLVSGYFPEPVTVSWNSGSLTSGVHTFPSVLQSSGLYSLSSMVTVPSSRWPSETFTCNVAHPASKTKVDKPVPKRENGRVPRPPDCPKCPAPEMLGGPSVFIFPPKPKDTLLIARTPEVTCVVVDLDPEDPEVQISWFVDGKQMQTAKTQPREEQFNGTYRVVSVLPIGHQDWLKGKQFTCKVNNKALPSPIERTISKARGQAHQPSVYVLPPSREELSKNTVSLTCLIKDFFPPDIDVEWQSNGQQEPESKYRTTPPQLDEDGSYFLYSKLSVDKSRWQRGDTFICAVMHEALHNHQTQESLSHSPGK
12.9 nM	canine IgGB (65) mAb with mutation Y436D (antibody, part only; not given: Variable domains, not shown: another chain or arm of the molecule) constant: ASTTAPSVFPLAPSCGSTSGSTVALACLVSGYFPEPVTVSWNSGSLTSGVHTFPSVLQSSGLYSLSSMVTVPSSRWPSETFTCNVAHPASKTKVDKPVPKRENGRVPRPPDCPKCPAPEMLGGPSVFIFPPKPKDTLLIARTPEVTCVVVDLDPEDPEVQISWFVDGKQMQTAKTQPREEQFNGTYRVVSVLPIGHQDWLKGKQFTCKVNNKALPSPIERTISKARGQAHQPSVYVLPPSREELSKNTVSLTCLIKDFFPPDIDVEWQSNGQQEPESKYRTTPPQLDEDGSYFLYSKLSVDKSRWQRGDTFICAVMHEALHNHDTQESLSHSPGK
7.27 nM	canine IgGB (65) mAb with mutation Y436N (antibody, part only; not given: variable domains of unnamed mAb, not shown: another chain or arm of the molecule) constant: ASTTAPSVFPLAPSCGSTSGSTVALACLVSGYFPEPVTVSWNSGSLTSGVHTFPSVLQSSGLYSLSSMVTVPSSRWPSETFTCNVAHPASKTKVDKPVPKRENGRVPRPPDCPKCPAPEMLGGPSVFIFPPKPKDTLLIARTPEVTCVVVDLDPEDPEVQISWFVDGKQMQTAKTQPREEQFNGTYRVVSVLPIGHQDWLKGKQFTCKVNNKALPSPIERTISKARGQAHQPSVYVLPPSREELSKNTVSLTCLIKDFFPPDIDVEWQSNGQQEPESKYRTTPPQLDEDGSYFLYSKLSVDKSRWQRGDTFICAVMHEALHNHNTQESLSHSPGK
9.51 nM	canine IgGB (65) mAb with mutation Y436M (antibody, part only; not given: Variable domains, not shown: another chain or arm of the molecule) constant: ASTTAPSVFPLAPSCGSTSGSTVALACLVSGYFPEPVTVSWNSGSLTSGVHTFPSVLQSSGLYSLSSMVTVPSSRWPSETFTCNVAHPASKTKVDKPVPKRENGRVPRPPDCPKCPAPEMLGGPSVFIFPPKPKDTLLIARTPEVTCVVVDLDPEDPEVQISWFVDGKQMQTAKTQPREEQFNGTYRVVSVLPIGHQDWLKGKQFTCKVNNKALPSPIERTISKARGQAHQPSVYVLPPSREELSKNTVSLTCLIKDFFPPDIDVEWQSNGQQEPESKYRTTPPQLDEDGSYFLYSKLSVDKSRWQRGDTFICAVMHEALHNHMTQESLSHSPGK
6.38 nM	canine IgGB (65) mAb with mutation T286I (antibody, part only; not given: Variable domains, not shown: another chain or arm of the molecule) constant: ASTTAPSVFPLAPSCGSTSGSTVALACLVSGYFPEPVTVSWNSGSLTSGVHTFPSVLQSSGLYSLSSMVTVPSSRWPSETFTCNVAHPASKTKVDKPVPKRENGRVPRPPDCPKCPAPEMLGGPSVFIFPPKPKDTLLIARTPEVTCVVVDLDPEDPEVQISWFVDGKQMQIAKTQPREEQFNGTYRVVSVLPIGHQDWLKGKQFTCKVNNKALPSPIERTISKARGQAHQPSVYVLPPSREELSKNTVSLTCLIKDFFPPDIDVEWQSNGQQEPESKYRTTPPQLDEDGSYFLYSKLSVDKSRWQRGDTFICAVMHEALHNHYTQESLSHSPGK
9.8 nM	canine IgGB (65) mAb with mutation Y436F (antibody, part only; not given: Variable domains, not shown: another chain or arm of the molecule) constant: ASTTAPSVFPLAPSCGSTSGSTVALACLVSGYFPEPVTVSWNSGSLTSGVHTFPSVLQSSGLYSLSSMVTVPSSRWPSETFTCNVAHPASKTKVDKPVPKRENGRVPRPPDCPKCPAPEMLGGPSVFIFPPKPKDTLLIARTPEVTCVVVDLDPEDPEVQISWFVDGKQMQTAKTQPREEQFNGTYRVVSVLPIGHQDWLKGKQFTCKVNNKALPSPIERTISKARGQAHQPSVYVLPPSREELSKNTVSLTCLIKDFFPPDIDVEWQSNGQQEPESKYRTTPPQLDEDGSYFLYSKLSVDKSRWQRGDTFICAVMHEALHNHFTQESLSHSPGK
6.88 nM	canine IgGB (65) mAb with mutation Y436K (antibody, part only; not given: variable domains of unnamed mAb, not shown: another chain or arm of the molecule) constant: ASTTAPSVFPLAPSCGSTSGSTVALACLVSGYFPEPVTVSWNSGSLTSGVHTFPSVLQSSGLYSLSSMVTVPSSRWPSETFTCNVAHPASKTKVDKPVPKRENGRVPRPPDCPKCPAPEMLGGPSVFIFPPKPKDTLLIARTPEVTCVVVDLDPEDPEVQISWFVDGKQMQTAKTQPREEQFNGTYRVVSVLPIGHQDWLKGKQFTCKVNNKALPSPIERTISKARGQAHQPSVYVLPPSREELSKNTVSLTCLIKDFFPPDIDVEWQSNGQQEPESKYRTTPPQLDEDGSYFLYSKLSVDKSRWQRGDTFICAVMHEALHNHKTQESLSHSPGK
